# Values quoted from earlier work as cited in US20070178561A1, “Anti-hiv-1 compounds based upon a conserved amino acid sequence shared by gp160 and the human cd4 protein” (priority 2003, published 2007).
# Assays:
# gp160 = gp160 (Human immunodeficiency virus type 1 group M subtype B, UniProt P04578); details: Jiang et al., Nature 365:113, 1993
# HIV-1 = details: in vitro viral cell growth assays using p24
sequence,measurement,setting,value
TNWLWYIKLFIMIVGGLVGLRIVFAKKKC [683-707KKKC],binding to gp160,gp160,bound gp160
same,inhibition of viral growth (p24),HIV-1,does not inhibit viral growth
